Results as given in US20190038704A1.

Tests used:
[1] = molecular target: EphA4 on neurons of embryonic day 6 chicken nasal retinal explants (chicken) (UniProt Q07496); test: cell-based or functional assay
[2] = molecular target: mouse EphA4 ectodomain fused to Fc (mouse) (UniProt Q03137); test: competition ELISA: ephrin-A5 AP binding to immobilized EphA4 Fc
Sequence of mouse EphA4 ectodomain fused to Fc (mouse) (Q03137 20-547): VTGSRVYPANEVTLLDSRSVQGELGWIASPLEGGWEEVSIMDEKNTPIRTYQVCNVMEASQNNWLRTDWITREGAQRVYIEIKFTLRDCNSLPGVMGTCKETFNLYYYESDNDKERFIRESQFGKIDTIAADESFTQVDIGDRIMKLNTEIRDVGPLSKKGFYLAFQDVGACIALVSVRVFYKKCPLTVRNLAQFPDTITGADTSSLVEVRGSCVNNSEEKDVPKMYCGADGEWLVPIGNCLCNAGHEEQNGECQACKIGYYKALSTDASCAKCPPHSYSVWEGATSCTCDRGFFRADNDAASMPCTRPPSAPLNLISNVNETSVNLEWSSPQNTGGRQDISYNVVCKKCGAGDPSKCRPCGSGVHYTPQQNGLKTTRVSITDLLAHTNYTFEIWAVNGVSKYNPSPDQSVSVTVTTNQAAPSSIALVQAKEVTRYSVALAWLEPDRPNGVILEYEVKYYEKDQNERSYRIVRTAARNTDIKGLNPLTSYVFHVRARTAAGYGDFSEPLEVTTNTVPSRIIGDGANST

Sequence of EphA4 on neurons of embryonic day 6 chicken nasal retinal explants (chicken) (Q07496 20-986): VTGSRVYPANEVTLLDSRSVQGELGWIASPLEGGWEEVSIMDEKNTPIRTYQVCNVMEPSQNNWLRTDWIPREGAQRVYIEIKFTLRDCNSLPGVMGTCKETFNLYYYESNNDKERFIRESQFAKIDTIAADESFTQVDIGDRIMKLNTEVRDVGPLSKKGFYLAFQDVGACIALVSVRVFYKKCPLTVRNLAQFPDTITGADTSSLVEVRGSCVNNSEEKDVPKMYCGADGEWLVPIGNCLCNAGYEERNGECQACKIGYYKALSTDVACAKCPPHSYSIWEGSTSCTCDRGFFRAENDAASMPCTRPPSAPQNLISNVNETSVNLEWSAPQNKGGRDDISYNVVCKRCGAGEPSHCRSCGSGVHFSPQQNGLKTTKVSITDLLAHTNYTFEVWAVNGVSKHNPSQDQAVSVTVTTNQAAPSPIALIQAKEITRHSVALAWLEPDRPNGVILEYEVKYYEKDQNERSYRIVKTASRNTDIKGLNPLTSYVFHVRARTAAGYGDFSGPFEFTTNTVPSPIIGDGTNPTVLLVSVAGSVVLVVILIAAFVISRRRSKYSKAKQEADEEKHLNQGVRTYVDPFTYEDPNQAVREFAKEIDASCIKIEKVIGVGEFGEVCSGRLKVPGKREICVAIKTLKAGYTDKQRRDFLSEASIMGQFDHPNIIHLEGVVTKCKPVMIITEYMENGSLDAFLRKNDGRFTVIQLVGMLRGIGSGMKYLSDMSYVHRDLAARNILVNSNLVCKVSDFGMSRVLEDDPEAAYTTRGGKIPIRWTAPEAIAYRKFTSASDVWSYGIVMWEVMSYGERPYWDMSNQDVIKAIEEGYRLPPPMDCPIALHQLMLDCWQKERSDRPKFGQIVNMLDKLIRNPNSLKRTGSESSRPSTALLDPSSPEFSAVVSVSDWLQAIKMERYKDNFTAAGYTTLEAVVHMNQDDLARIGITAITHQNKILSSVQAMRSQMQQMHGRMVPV
Sequence of ephrin-A5 Fc (Fc fusion) (P52803 21-203): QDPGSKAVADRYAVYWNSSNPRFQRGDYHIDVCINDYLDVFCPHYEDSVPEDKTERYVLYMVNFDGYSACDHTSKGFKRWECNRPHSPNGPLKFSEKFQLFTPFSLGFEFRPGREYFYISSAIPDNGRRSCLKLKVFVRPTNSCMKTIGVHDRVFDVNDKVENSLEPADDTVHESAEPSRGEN

Row | Substance | percent collapsed growth cones, chicken nasal retinal explants (experiment with APY-d3.am) [1] [%] | percent collapsed growth cones, chicken nasal retinal explants (experiment with APY-βAla8.am) [1] [%] | IC50 [2] [nM]
1 | ephrin-A5 Fc (Fc fusion) | 70 | 65 | –
2 | βAla1-PY-Lys7-βAla8.am (peptide) | – | – | 70
